Reference: patent US20150376286A1 (Amgen, published 2015)

Experiments:
[1] = molecular target: T1, human adrenomedullin receptor 2 (hCRLR + hRAMP3) (human, UniProt O60896 24-148); experiment: cell-based or functional assay
[2] = molecular target: T2, human adrenomedullin receptor 1 (hCRLR + hRAMP2) (human, UniProt O60895 43-175); experiment: cell-based or functional assay
[3] = molecular target: T3, human amylin AMY1 receptor (hCTR + hRAMP1) (human, UniProt P30988 25-474); experiment: cell-based or functional assay
[4] = molecular target: T4, cynomolgus CGRP receptor (cynoCRLR + cynoRAMP1) (cynomolgus monkey); experiment: cell-based or functional assay
T4 chain 1: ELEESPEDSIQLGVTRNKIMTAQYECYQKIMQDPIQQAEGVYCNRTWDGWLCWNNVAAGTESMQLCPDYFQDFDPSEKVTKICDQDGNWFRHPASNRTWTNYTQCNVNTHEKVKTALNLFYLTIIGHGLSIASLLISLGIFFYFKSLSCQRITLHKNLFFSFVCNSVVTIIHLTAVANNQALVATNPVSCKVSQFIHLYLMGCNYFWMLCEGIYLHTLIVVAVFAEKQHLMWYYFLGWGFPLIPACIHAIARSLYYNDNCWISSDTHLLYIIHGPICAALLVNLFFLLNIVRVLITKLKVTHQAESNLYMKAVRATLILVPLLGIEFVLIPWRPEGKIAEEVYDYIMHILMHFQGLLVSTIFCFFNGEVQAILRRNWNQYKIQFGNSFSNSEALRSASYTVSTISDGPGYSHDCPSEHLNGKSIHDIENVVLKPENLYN
T4 chain 2: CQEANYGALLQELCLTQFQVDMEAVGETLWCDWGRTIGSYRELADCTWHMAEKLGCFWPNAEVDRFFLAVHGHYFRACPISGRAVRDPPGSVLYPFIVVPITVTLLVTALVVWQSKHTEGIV

[5] = molecular target: T3, human amylin AMY1 receptor (hCTR + …); experiment: immunohistochemistry, MCF-7 cells endogenously expressing amylin receptors, staining intensity (visual score); the text says no staining was observed
Method: (§1) 2-4×10⁶ cells were injected per colla plug (Integra LifeSciences Co., Plainsboro, N.J.). Colla plugs were embedded in OCT medium (Sakura Finetek Inc., Torrance, Calif.), frozen at −20° C. and cut into 20 μm sections using a cryostat. Sections were fixed with 4% paraformaldehyde for 1 hour at room temperature (RT) and subsequently washed in phosphate-buffered saline (PBS). Endogenous peroxidase was blocked with 3% H₂O₂/PBS for 15 min and sections were incubated in blocking solution (PBS with 3% normal goat serum (Vector Labs, Burlingame, Calif.) and 0.3% triton X-100) for 1 hour. […] Sections were cleared with xylene and cover slipped with Permount (Fisher Chemicals, Fair Lawn, N.J.). Immunoreactivity was analyzed using a Nikon E-800 microscope and associated software (Nikon, Melville, N.Y.).

[6] = molecular target: T5, human CGRP receptor (CRLR + RAMP1) (human, UniProt Q16602 23-461; O60894 27-148); experiment: immunohistochemistry, CGRP/CHO cells, staining intensity (visual score)
T5 construct: also called hCGRP R; huCGRP R
Method: as §1

[7] = molecular target: T2, human adrenomedullin receptor 1 (hCRLR …); experiment: immunohistochemistry, HEK cells expressing recombinant human adrenomedullin receptor 1 (CRLR+RAMP2), staining intensity (visual score); the text says no staining was observed
Method: as §1

[8] = molecular target: T1, human adrenomedullin receptor 2 (hCRLR …); experiment: immunohistochemistry, CHO cells expressing recombinant human adrenomedullin receptor 2 (CRLR+RAMP3), staining intensity (visual score); the text says no staining was observed
Method: as §1

[9] = molecular target: T6, chimeric CGRP receptor: CRLR chimera #1 (L24 to Q33) + RAMP1 wt (human/rat chimera; human, UniProt Q16602 1-461; O60894 27-148); experiment: FACS on transfected 293-6E cells
T6 construct: also called CRLR L24-Q33+RAMP wt
Method: Cells were harvested after 72 hr, washed with PBS+0.5% BSA, and counted. Each transfected cell line was resuspended at a dilution of 5×10⁵ cells per 100 μl PBS/BSA. 100 μl of cell suspension was aliquot per well in a 96-well round-bottom plate (Falcon). The cells were pelleted at 1200 rpm for 5 min. […] Cells were incubated on ice for 1 hr. and then washed twice with PBS/BSA. […] Cells were incubated on ice in the dark for 1 hr. and then washed twice with PBS/BSA. Cells were resuspended in 200 μl PBS/BSA and analyzed using a FACS Calibur.

T1 sequence (O60896 24-148): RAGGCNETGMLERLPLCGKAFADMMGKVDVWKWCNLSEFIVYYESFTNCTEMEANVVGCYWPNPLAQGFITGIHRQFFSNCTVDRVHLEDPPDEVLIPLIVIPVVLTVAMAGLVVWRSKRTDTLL
T3 sequence (P30988 25-474): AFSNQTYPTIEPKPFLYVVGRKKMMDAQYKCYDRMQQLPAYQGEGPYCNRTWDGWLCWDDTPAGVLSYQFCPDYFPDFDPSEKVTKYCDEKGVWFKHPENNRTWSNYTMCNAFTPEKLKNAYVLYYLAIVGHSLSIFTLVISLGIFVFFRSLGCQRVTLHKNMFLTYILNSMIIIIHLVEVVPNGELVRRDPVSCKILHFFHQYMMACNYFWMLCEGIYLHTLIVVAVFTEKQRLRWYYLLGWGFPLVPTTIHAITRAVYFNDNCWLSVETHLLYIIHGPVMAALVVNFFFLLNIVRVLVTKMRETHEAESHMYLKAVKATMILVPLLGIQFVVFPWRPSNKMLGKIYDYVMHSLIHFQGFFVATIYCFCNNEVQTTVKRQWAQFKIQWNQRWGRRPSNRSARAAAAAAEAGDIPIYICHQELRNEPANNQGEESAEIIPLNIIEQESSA

cAMP assay IC50 [1]: > 1000 nM
cAMP assay IC50 [2]: > 1000 nM
cAMP assay IC50 [3]: > 1000 nM
cAMP assay IC50 [4]: 1.93 nM
binding result [5]: no binding
binding result [6]: binds
binding result [7]: no binding
binding result [8]: no binding
binding result [9]: binds
B1: 32H7 (antibody, human IgG2, kappa, V domains shown)
VH: QVQLVESGGGVVQPGRSLRLSCAASGFTFSSYGMHWVRQAPGKGLEWVAVIWYDGSNKYYADSVKGRFIISRDKSKNTLYLQMNSLRAEDTAVYYCARAGGIAAAGLYYYYGMDVWGQGTTVTVSS
VL: EIVLTQSPGTLSLSPGERATLSCRASQSVSSGYLTWYQQKPGQAPRLLIYGASSRATGIPDRFSGSGSGTDFTLTISRLEPEDFAVYYCQQYGNSLCRFGQGTKLEIKR
notes: also called 32H7.1G
